# Source: doi:10.1101/2025.09.10.675378 (bioRxiv, 2025)
# Target: the molecule itself
# Test: native MS
row,Protein,binding result
1,hDVL3 PDZ-IDR2-DEP (aa 243-496) (domain or fragment) MSLNIITVTLNMEKYNFLGISIVGQSNERGDGGIYIGSIMKGGAVAADGRIEPGDMLLQVNEINFENMSNDDAVRVLREIVHKPGPITLTVAKCWDPSPRGCFTLPRSEPIRPIDPAAWVSHTAAMTGTFPAYGMSPSLSTITSTSSSITSSIPDTERLDDFHLSIHSDMAAIVKAMASPESGLEVRDRMWLKITIPNAFIGSDVVDWLYHNVEGFTDRREARKYASNLLKAGFIRHTVNKITFSEQCYYIFGD,binds
2,"phosphorylated hDVL3 PDZ-IDR2-DEP (PDZ-pIDR2-DEP, aa 243-496) (domain or fragment, 8-19 phosphates on S/T residues of IDR2 (native ESI-MS), added by CK1ε) MSLNIITVTLNMEKYNFLGISIVGQSNERGDGGIYIGSIMKGGAVAADGRIEPGDMLLQVNEINFENMSNDDAVRVLREIVHKPGPITLTVAKCWDPSPRGCFTLPRSEPIRPIDPAAWVSHTAAMTGTFPAYGMSPSLSTITSTSSSITSSIPDTERLDDFHLSIHSDMAAIVKAMASPESGLEVRDRMWLKITIPNAFIGSDVVDWLYHNVEGFTDRREARKYASNLLKAGFIRHTVNKITFSEQCYYIFGD",binds
